Source: patent US20240301023A1 (PREVECEUTICAL MEDICAL, published 2024)
Square brackets hold non-standard residues; d marks the D form. Ends that are not written are not given here. Phe(4-NO2) = N[C@@H](Cc1ccc([N+](=O)[O-])cc1)C(=O)O; Phe(4-Cl) = N[C@@H](Cc1ccc(Cl)cc1)C(=O)O; Api = NC1(C(=O)O)CCNCC1; GABA = NCCCC(=O)O; Sar = CNCC(=O)O

What was measured:
Test in all cases: cell-based or functional assay
[1] = target: T1, Kappa opioid receptor (KOR) (Homo sapiens (Human), UniProt P41145 1-380)
Mu opioid receptor (MOR) [2] = target: Mu opioid receptor (MOR)
[3] = target: Delta opioid receptor (DOR)
[4] = target: T1, Kappa opioid receptor (KOR); remark: listed apart in the source
Mu opioid receptor (MOR) [5] = target: Mu opioid receptor (MOR); remark: listed apart in the source
[6] = target: Delta opioid receptor (DOR); remark: listed apart in the source

T1 sequence (P41145 whole entry, form in doubt): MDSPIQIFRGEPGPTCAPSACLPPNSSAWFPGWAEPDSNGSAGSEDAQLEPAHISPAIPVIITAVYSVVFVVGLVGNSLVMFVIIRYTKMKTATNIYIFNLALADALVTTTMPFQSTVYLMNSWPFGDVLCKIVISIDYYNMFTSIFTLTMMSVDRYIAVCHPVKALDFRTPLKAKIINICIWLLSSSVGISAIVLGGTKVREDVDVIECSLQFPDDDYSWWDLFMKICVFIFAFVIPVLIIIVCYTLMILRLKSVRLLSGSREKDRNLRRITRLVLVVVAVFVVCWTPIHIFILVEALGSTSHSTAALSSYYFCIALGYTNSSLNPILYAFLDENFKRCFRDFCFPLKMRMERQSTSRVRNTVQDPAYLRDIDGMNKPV
Sequence of Mu opioid receptor (MOR) (P35372 whole entry): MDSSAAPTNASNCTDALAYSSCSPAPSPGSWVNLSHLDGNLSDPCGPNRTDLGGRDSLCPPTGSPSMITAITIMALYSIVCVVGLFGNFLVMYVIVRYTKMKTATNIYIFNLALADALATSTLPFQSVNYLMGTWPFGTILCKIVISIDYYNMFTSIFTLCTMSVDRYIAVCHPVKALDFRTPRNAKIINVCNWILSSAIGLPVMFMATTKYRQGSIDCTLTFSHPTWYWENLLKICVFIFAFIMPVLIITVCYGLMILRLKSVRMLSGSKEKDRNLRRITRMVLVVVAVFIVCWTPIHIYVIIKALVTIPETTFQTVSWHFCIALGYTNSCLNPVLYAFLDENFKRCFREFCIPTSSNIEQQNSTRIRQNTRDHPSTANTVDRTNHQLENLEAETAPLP

| Binder | cAMP assay (ALPHAScreen), result at 1 µM peptide [1] | cAMP assay (ALPHAScreen), result at 10 µM peptide [1] | cAMP assay (ALPHAScreen), result at 1 µM peptide (Mu opioid receptor (MOR) [2]) | cAMP assay (ALPHAScreen), result at 10 µM peptide (Mu opioid receptor (MOR) [2]) | cAMP assay (ALPHAScreen), result at 1 µM peptide [3] | cAMP assay (ALPHAScreen), result at 10 µM peptide [3] | Activity (EC50, nM), cAMP assay [4] | Activity (EC50, nM), cAMP assay (Mu opioid receptor (MOR) [5]) | Activity (EC50, nM), cAMP assay [6] |
| --- | --- | --- | --- | --- | --- | --- | --- | --- | --- |
| H-Y[GABA]FLRR-NH2 (SMILES CC(C)C[C@H](NC(=O)[C@H](Cc1ccccc1)NC(=O)CCCNC(=O)[C@@H](N)Cc1ccc(O)cc1)C(=O)N[C@@H](CCCNC(=N)N)C(=O)N[C@@H](CCCNC(=N)N)C(N)=O) [SEQ ID NO. 1: NH2-Tyr-Gaba-Phe-Leu-Arg-Arg-NH2] | 4.23 | 22.9 | -6.78 | 7.28 | 2.57 | 19.6 | – | – | – |
| H-Y[Sar]FLRR-NH2 [SEQ ID NO. 2: NH2-Tyr-Sar-Phe-Leu-Arg-Arg-NH2] | 21.6 | 32.4 | -2.5 | 12.4 | -0.47 | 22 | 8.6 nM | 6700 nM | > 10000 nM |
| H-Y[Sar][Phe(4-NO2)]LRX-NH2 (not fully specified (residue 6); printed as NH2-Tyr-Sar-(4-NO2)Phe-Leu-Arg-NMA-NH2) [SEQ ID NO. 18: NH2-Tyr-Sar-(4-NO2)Phe-Leu-Arg-NMA-NH2] | – | – | – | – | – | – | – | > 10000 nM | > 10000 nM |
| H-Y[Sar][Phe(4-Cl)]LR[dR]IR-NH2 [SEQ ID NO. 20: NH2-Tyr-Sar-(4-Cl)Phe-Leu-Arg-DArg-Ile-Arg-NH2] | – | – | – | – | – | – | – | > 10000 nM | 3580 nM |
| H-Y[Sar][Phe(4-Cl)]LR[dR]-{C7H14‑CONH2} [SEQ ID NO. 24: NH2-Tyr-Sar-(4-Cl)Phe-Leu-Arg-DArg-C7H14-CONH2] | – | – | – | – | – | – | – | > 10000 nM | > 10000 nM |
| H-Y[Sar][Phe(4-Cl)]LR[dR]I[dR]-NH2 [SEQ ID NO. 25: NH2-Tyr-Sar-(4-Cl)Phe-Leu-Arg-DArg-Ile-DArg-NH2] | – | – | – | – | – | – | – | 1610 nM | > 10000 nM |
| H-Y[Sar][Phe(4-Cl)]LR[dR] (not fully specified (C-terminus); printed as NH2-Tyr-Sar-(4-Cl)Phe-Leu-Arg-DArg-C7H14-COOH) [SEQ ID NO. 28: NH2-Tyr-Sar-(4-Cl)Phe-Leu-Arg-DArg-C7H14-COOH] | – | – | – | – | – | – | 2.33 nM | > 10000 nM | > 10000 nM |
| H-Y[Sar][Phe(4-NO2)]LR[dR]-{C7H14‑CONH2} [SEQ ID NO. 31: NH2-Tyr-Sar-(4-NO2)Phe-Leu-Arg-DArg-C7H14-CONH2] | – | – | – | – | – | – | 2.49 nM | > 10000 nM | > 10000 nM |
| [dF][dF][dL][dK][Api]-OH (N-terminus assumed; SMILES CC(C)C[C@@H](NC(=O)[C@@H](Cc1ccccc1)NC(=O)[C@H](N)Cc1ccccc1)C(=O)N[C@H](CCCCN)C(=O)NC1(C(=O)O)CCNCC1) [CR845 (SEQ ID NO. 35: DPhe-DPhe-DLeu-DLys-Cap-CO2H)] | 25.9 | 34.6 | 0.37 | 8.07 | -5.72 | 3.27 | 0.37 nM | > 10000 nM | > 10000 nM |
| H-Y[Sar]FLR[dR]-NH2 [SEQ ID NO. 3: NH2-Tyr-Sar-Phe-Leu-Arg-DArg-NH2] | 27.2 | 43.6 | -0.68 | 2.17 | -2.27 | 2.24 | 74.7 nM | > 10000 nM | > 10000 nM |
| H-Y[Sar][Phe(4-NO2)]LR[dR]-NH2 [SEQ ID NO. 4: NH2-Tyr-Sar-(4-NO2)Phe-Leu-Arg-DArg-NH2] | – | – | 0.17 | 2.52 | -0.75 | 2.04 | – | > 10000 nM | > 10000 nM |
